Experimental data: patent US20160280792A1 (Kyowa Kirin, published 2016)

Legend:
[1] = molecular target: T1, soluble form of human IL-3Rα protein (extracellular region with C-terminal FLAG tag) (human, UniProt P26951 19-305); assay: SPR (Biacore 2000): antibody captured on anti-human antibody CM5 chip, soluble IL-3Rα as analyte, 1:1 Langmuir fit
T1 construct: Made in CHOras1 cells, purified on anti-FLAG gel; also called soluble form of IL-3Rα protein; soluble form of human IL-3Rα extracellular region
T1 sequence: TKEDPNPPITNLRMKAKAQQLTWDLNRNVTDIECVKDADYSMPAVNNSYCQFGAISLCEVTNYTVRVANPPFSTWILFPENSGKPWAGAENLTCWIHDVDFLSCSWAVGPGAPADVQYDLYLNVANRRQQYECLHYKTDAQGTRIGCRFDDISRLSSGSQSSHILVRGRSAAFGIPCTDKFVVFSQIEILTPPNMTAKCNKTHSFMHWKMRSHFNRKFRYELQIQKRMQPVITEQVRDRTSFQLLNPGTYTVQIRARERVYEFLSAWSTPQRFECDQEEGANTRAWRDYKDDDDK
Description: Specifically, CM5 (research grade) was used for a sensor tip (each GE). Firstly, the CM5 tip was activated by applying an equivalent mixture of 400 mM EDC (N-ethyl-N′-(3-dimethylaminopropyl)carbodiimidehydrochloride) and 100 mM NHS (N-hydroxysuccinimide) to the CM5 tip. Next, an antibody to the human antibody attached to the Human Antibody Capture Kit (GE) (hereinafter, referred to as anti-human antibody antibody) was diluted with the solution attached to the kit and applied thereto, thereby immobilizing the required amount of the anti-human antibody antibody to the CM5 tip. Regarding the mouse antibody to be used as a control, an antibody to the mouse antibody attached to the Mouse Antibody Capture Kit (GE) (hereinafter, referred to as anti-mouse antibody antibody) was diluted with the solution attached to the kit and applied thereto, thereby immobilizing a necessary amount thereof to the CM5 tip. Next, the surface of the activated tip was blocked and inactivated by applying 1 M of ethanolamine dihydrochloride thereto. By the above steps until this, preparation of a CM5 sensor tip which can measure the dissociation constant KD was completed.
Next, each of anti-IL-3Rα antibodies, was diluted to give a concentration of 5 μg/ml with HBS-FP buffer (GE) one kind per one flow cell and applied, thereby allowing it to bind to the immobilized anti-human antibody antibody or anti-mouse antibody antibody. Next, the soluble form of IL-3Rα protein was applied thereto. In order to dissociate the bound anti-IL-3Rα antibody and soluble form of IL-3Rα protein, 3 M MgCl₂ attached to Human Antibody Capture Kit or pH 1.7 of Glycine-HCl attached to Mouse Antibody Capture Kit was applied in the amount attached to the kit. The steps until this were regarded as one step. By repeating the same steps using two or more concentrations of the soluble form of IL-3Rα protein, data for calculating association and dissociation constants (sensorgram) were obtained.
In the analysis, Biaevaluation software (GE) was used and Biaevaluation Software Handbook was referred. Specifically, by carrying out simultaneous analysis of kinetics analysis, employing basically the 1:1 Langmuir binding reaction model and fitting, association rate constant (Ka) and dissociation rate constant (Kd) were calculated, and the value of dissociation constant KD was calculated by the calculation of Kd/Ka.

[2] = molecular target: T2, IL-3Rα/GM-CSFRα chimeric protein, B domain of IL-3Rα replaced by that of GM-CSFRα, on HEK293T cells (human, UniProt P15509 115-213); assay: flow cytometry, labelled antibody at 1 µg/ml, HEK293T cells expressing the construct
T2 construct: domain: B domain; The KpnI sites (GGTACC) at both junctions each encode an extra Gly-Thr; also called B domain substitution
T2 sequence: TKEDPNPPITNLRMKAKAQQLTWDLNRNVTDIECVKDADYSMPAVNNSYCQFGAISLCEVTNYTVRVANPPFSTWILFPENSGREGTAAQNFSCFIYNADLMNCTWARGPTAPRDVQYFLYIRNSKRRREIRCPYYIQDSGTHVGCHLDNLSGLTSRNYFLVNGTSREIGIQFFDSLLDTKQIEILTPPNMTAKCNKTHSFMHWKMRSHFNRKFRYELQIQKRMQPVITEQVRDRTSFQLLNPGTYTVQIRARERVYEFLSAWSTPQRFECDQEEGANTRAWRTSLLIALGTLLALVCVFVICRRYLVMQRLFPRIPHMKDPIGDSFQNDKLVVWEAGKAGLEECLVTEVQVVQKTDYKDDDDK
Description: (§1) HEK293T cell (ATCC CRL 1268) was used for the preparation of the IL-3Rα/GM-CSFRα chimeric protein expression cell. Using 293Fectin (Invitrogen), the plasmid DNA obtained in the above was introduced as an expression vector into the HEK293T. The HEK293T to which the expression vector was introduced was cultured using a shaker under conditions of 5% CO₂ and 37° C. after 2 days of the introduction, the […] was used for in the flow cytometry analysis.
(§2) From 100,000 to 1,000,000 cells of the chimeric protein expression cell were allowed to react for 30 minutes on ice with at a concentration of 1 μg/ml with an AlexaFlour488-labeled human antibody or a commercially available FITC-labeled anti-IL-3Rα mouse antibody (7G3 or 9F5: both from BD Biosciences, 6H6: Acris Antibodies, AC145: Milteny Biotech, 107D2.08: Dendritics). A staining medium (Dulbecco's PBS supplemented with 2% fetal bovine serum, 2 mM EDTA and 0.05% NaN₃) was used for the dilution of antibodies and cells. Next, the cells reacted with antibodies were washed three times with the staining medium and whether the labeled antibody bound to the cell was confirmed by flow cytometry.

[3] = molecular target: T3, IL-3Rα/GM-CSFRα chimeric protein, A domain of IL-3Rα replaced by that of GM-CSFRα, on HEK293T cells (human, UniProt P15509 23-114); assay: as above
T3 construct: domain: A domain; The KpnI site (GGTACC) at the junction encodes an extra Gly-Thr; also called A domain substitution
T3 sequence: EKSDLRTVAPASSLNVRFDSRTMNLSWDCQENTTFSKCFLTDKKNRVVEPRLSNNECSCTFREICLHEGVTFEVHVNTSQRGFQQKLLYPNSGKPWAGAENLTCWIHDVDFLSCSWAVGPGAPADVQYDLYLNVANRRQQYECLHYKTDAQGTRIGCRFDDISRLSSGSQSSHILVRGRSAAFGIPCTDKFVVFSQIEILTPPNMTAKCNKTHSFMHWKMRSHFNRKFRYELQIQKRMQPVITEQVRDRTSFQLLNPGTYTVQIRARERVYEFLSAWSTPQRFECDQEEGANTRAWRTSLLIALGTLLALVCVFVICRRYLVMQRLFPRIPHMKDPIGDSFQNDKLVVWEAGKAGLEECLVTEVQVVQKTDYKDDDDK
Description: as §1, §2

Kd [1]: 3.24 nM
binding result [2]: no binding (tested: 1 µg/ml)
binding result [3]: no binding (tested: 1 µg/ml)
B1: Old19 anti-human IL-3Rα human antibody (antibody, human IgG1, V domains shown)
VH: QVQLVQSGAEVKKPGSSVKVSCKASGGTFSSYAISWVRQAPGQGLEWVGGIIPIFGTANYAQKFQGRVTITADESTSTAYMELSSLRSEDTAVYYCARGHKYGPYYFDYWGQGTLVTVSS
VL: DIQMTQSPSSLSASVGDRVTITCRASQGISSWLAWYQQKPEKAPKSLIYAASSLQSGVPSRFSGSGSGTDFTLTISSLQPEDFATYYCQQYNSYPRTFGQGTKVEIK
notes: Human antibody; recombinant form in N5KG1-Val Lark vector (human IgG1, kappa)
